The values that follow come from the supplement of paper PMC9170038.

The data set has as its system MS2 coat protein. Briefly: apparent KD of MS2 coat protein; designed switch direction (-1 OFF switch, 1 ON switch): -1; higher = weaker reporter binding. Put shortly:
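On Illumina chips, designed RNA switches with common flanks were made by stalled E. coli RNA polymerase. Titrations with SNAP-549-labelled MS2 coat protein, doubling from 0.7 or 1.5 nM to 3 µM, were done with no input, with 200 uM small-molecule ligand, or with an oligonucleotide input. Apparent KD is the median per design over clusters, from curve fits of normalised cluster fluorescence.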

Where [1] appears, read: input ligand: microRNA oligo, concentration not stated.
[2] abbreviates: Eterna round: R95, input ligand: microRNA oligo, concentration not stated.
Setting [3] is: Eterna round: R95, input ligand: FMN 200 uM.
The mark [4] stands for this setting: Eterna round: R95, input ligand: none.

As to “UAUCAUCAUGUAGGAUAUGCGUGGCAAAGCUAUGCAGAAGGACAUGAGGAUCACCCAUGUUCUAGCGUCUGCGUACAGAUGCUA [Mat - Exclusion NG 1 - Mod of JL - D74] (Eterna round: R96, puzzle: Exclusion NG 1)”, the “apparent KD of MS2 coat protein” value is, setting by setting: (input ligand: FMN 200 uM) 247 nM; under setting [1], 45.2 nM; (input ligand: none) 68.7 nM.

Take “AGCAUGUAAGGAUAUGCAACACGACGUUCAAUCGUCGUGCCGCAGAAGGUACAUGAGGAUCACCCAUGUGCUCC [Xesodied] (puzzle: Exclusion 4)”: the “apparent KD of MS2 coat protein” value under setting [2] was determined as 75.4 nM.

“GGGCUGUCAGGAUAUUCGAGUUCGAGUGAAAGCUUGAGCUUGAAGAAGGGACAUGAGGAUCACCCAUGUGGCCC [-32.1, -31.1 kcal, A 26%, 1bis-0] (Eterna round: R97, puzzle: Exclusion 4)”: the “apparent KD of MS2 coat protein” value runs as follows: (input ligand: FMN 200 uM) 30.5 nM; (input ligand: none) 31.9 nM.

In the case of “CGCCAUCGAGUGAGGAUAUCAGGUAAAGGUGUACAUGAGAAGGCACUUGAGGAUCACCCAAGUAUUAAAGAAAA [Mareat] (Eterna round: R97, puzzle: Brourd's mod of Exclusion 4)”, the “apparent KD of MS2 coat protein” value is, setting by setting: (input ligand: FMN 200 uM) 356 nM; (input ligand: none) 48.3 nM.

On to “GUUUUGGGAGGAUAUAUGUGGAUAAUUUUUAUAUGAAAAUUACAUGAGGAUCACCCAUGUAGAAGGUCUAGAGC [-17.2, -15.1 kcal, 32% A] (Eterna round: R97, puzzle: Exclusion 2)”, for which the “apparent KD of MS2 coat protein” value was 473 nM (input ligand: FMN 200 uM) and 637 nM (input ligand: none).

On to “AGUACUAACACGCGAGUGUUAGUACAAUAAGCUUGUGAAACAUGAGGAUCACCCAUGUCCUCAUAAGCUCGUCUUAU [salish99_TOv2_r3_059] (puzzle: Sensor v3, turn-off variant 2)”, for which the “apparent KD of MS2 coat protein” value under setting [3] was determined as 16.7 nM, the “apparent KD of MS2 coat protein” value under setting [2] came to 674 nM and the “apparent KD of MS2 coat protein” value under setting [4] stood at 14.5 nM.

As to “UAAAAGGUAGGAUAUACGAAAAAAAAGGGUAGAAAAAAAACACAUGAGGAUCACCCAUGUAGAAGGACCAAAAU [salish99_ex2_r3_041] (puzzle: Exclusion 2)”, the “apparent KD of MS2 coat protein” value under setting [3] turned out to be 89.7 nM, the “apparent KD of MS2 coat protein” value under setting [2] worked out at 28.6 nM and the “apparent KD of MS2 coat protein” value under setting [4] worked out at 26.9 nM.

Regarding “CCUCUGUCAGGAUAUCGUGCAUACAACGAAAGUUCUAUGUGCGAGAAGGGACAUGAGGAUCACCCAUGUUUGCG [Omei Ex4 A21] (Eterna round: R97, puzzle: Exclusion 4)”, the “apparent KD of MS2 coat protein” value (input ligand: FMN 200 uM) is 225 nM and the “apparent KD of MS2 coat protein” value (input ligand: none) worked out at 62.5 nM.

Regarding “AAGAAACAUGAGGAUCACCCAUGUGAGGAUAUGUAAAAUAAAAGAAAAUAAAGAAGAAACAGAAGGCACAAAGG [Mat - Mod of Hog D22] (puzzle: Exclusion 1)”, the “apparent KD of MS2 coat protein” value amounted to 40.3 nM under setting [3], 36.1 nM under setting [2] and 33.7 nM under setting [4].

As to “CGAUAUAAGUCAGGAUAUGAGCGCAACUGACGAUCAGAAGGGACACAUGAGGAUCACCCAUGUGAUUUAUCAAUAUUAUACAUC [Prohibition 91 - Jieux - Exclusion NG 1] (Eterna round: R96, puzzle: Exclusion NG 1)”, the “apparent KD of MS2 coat protein” value is 36.5 nM (input ligand: FMN 200 uM), 27.3 nM under setting [1] and 31.6 nM (input ligand: none).

For the sequence “GGUUGACAUGAGGAUCACCCAUGUGAGGAUAUGCGAGAGAAAAAAGUGAGGAAGAAUAGCAGAAGGCGCUGUCG [salish99-ex1_r3_011] (puzzle: Exclusion 1)”, the “apparent KD of MS2 coat protein” value reads like this: under setting [3], 44.6 nM; under setting [2], 41.7 nM; under setting [4], 21.1 nM.

In the case of “AGCUGUGGCCGAGGAUAUCUAAUAAUCUCAACCGAAAUAUAAUCGGACAUGAGGAUCACCCAUGUAGAGAAGGCGGUCUCAGCA [Eli eng2 - 067] (Eterna round: R96, puzzle: Exclusion NG 2)”, the “apparent KD of MS2 coat protein” value under setting [1] was 27.2 nM.

As to “UAUUUGCAAGCGAGAUCCCACAUGAGGAUCACCCAUGUGCUCGUCUUAUAAGGUACUGUGACGAGAGUCACGGUACC [Mat - Sensor, turn-off var - Eli Mod - D90] (Eterna round: R97, puzzle: Sensor, turn-off variant 1)”, the “apparent KD of MS2 coat protein” value is, setting by setting: (input ligand: FMN 200 uM) 15 nM; (input ligand: none) 15.6 nM.

Turning to “GUGAGAUAGUUAGUGGACGACAUGAGGAUCACCCAUGUGAGGGAAAUGUUGAGGAGAAAGCUUUUUGCUCGUCUUUA [JR_SV3TOV1_Sub036] (puzzle: Sensor v3, turn-off variant 1)”, the “apparent KD of MS2 coat protein” value under setting [3] was determined as 90.8 nM, the “apparent KD of MS2 coat protein” value under setting [2] came to 87.4 nM and the “apparent KD of MS2 coat protein” value under setting [4] is 119 nM.

Turning to “UAAAUGCUGCGAGGAUAUACAUGAGGAUCACCCAUGUGGAUGUCUGAGGCUUUGCCUCAGACGAUGUAGAAGGCGCAGUAAAAU [Mat - Exclusion NG 2 - Mod of JL - D52] (Eterna round: R96, puzzle: Exclusion NG 2)”, the “apparent KD of MS2 coat protein” value is, setting by setting: (input ligand: FMN 200 uM) 134 nM; under setting [1], 15.7 nM; (input ligand: none) 22.5 nM.

Take “AAUACUAACAGCUGACUGUUAGUACUGUAGGUUUGUGUUACAUGAGGAUCACCCAUGUCCUCAUAGGCUCGUCUUGU [Mat - Sensor v3 - Turn-off var 2 - D98] (puzzle: Sensor v3, turn-off variant 2)”: the “apparent KD of MS2 coat protein” value amounted to 586 nM under setting [3], 322 nM under setting [2] and 697 nM under setting [4].

In the case of “CUUGACUGAGGAUAUUGUGCUGCUGACAUGAGGAUCACCCAUGUAUGUUAACUCGGCCGUCGAGAAGGCAGAAAGG [BotMod 19 - Jieux - Exclusion 5] (Eterna round: R97, puzzle: Exclusion 5)”, the “apparent KD of MS2 coat protein” value is 14.2 nM (input ligand: FMN 200 uM) and 40.8 nM (input ligand: none).

With “CCAAGCUUAUUCAUUAACCACAUGAGGAUCACCCAUGUCUAGGCAAUUAUGACUGGCCCAUCUGGUGCUCGUCUUAU [Sensor-V1 #31] (Eterna round: R97, puzzle: Sensor, turn-off variant 1)”, the “apparent KD of MS2 coat protein” value reads like this: (input ligand: FMN 200 uM) 20.9 nM; (input ligand: none) 20.8 nM.

With “CAGUACUGAGGAUAUACAUGAGGAUCACCCAUGUGUGUGAGUUUUGUAUGAAUGUUAUGUAGAAGGCGGUGCUG [JR_Ex3_Sub034] (Eterna round: R97, puzzle: Exclusion 3)”, the “apparent KD of MS2 coat protein” value is, setting by setting: (input ligand: FMN 200 uM) 285 nM; (input ligand: none) 504 nM.

With “CGUCUGUAAGGAUAUGGUUACAUCGACAUGAGGAUCACCCAUGUGACGUGGGACUAGUGAUUAGAAGGUACGAACG [EX5 #65] (Eterna round: R97, puzzle: Exclusion 5)”, the “apparent KD of MS2 coat protein” value (input ligand: FMN 200 uM) was 55.2 nM and the “apparent KD of MS2 coat protein” value (input ligand: none) stood at 59.4 nM.

“GGGCCCGGUGUGAGGAUAUUGGGCCCGAAAGGGCCCGAGAAGGCACAUGAGGAUCACCCAUGUAAGCCGGGCCC [-46.5, -44.5 kcal, A 23%, 5c-0] (Eterna round: R97, puzzle: Brourd's mod of Exclusion 4)”: the “apparent KD of MS2 coat protein” value (input ligand: FMN 200 uM) worked out at 15.8 nM and the “apparent KD of MS2 coat protein” value (input ligand: none) came to 14.9 nM.

On to “AGAAAGGAAGGAUAUACAAGAAAGCUGGGCAACGUCUCAGAACAUGAGGAUCACCCAUGUAGAAGGUCCAGGAA [Bienqura] (puzzle: Exclusion 2)”, for which, under setting [2], the “apparent KD of MS2 coat protein” value was 22.6 nM.

Turning to “AAGUCGACGGUGAGGAUAUUGGUUGAACGACAGAUUAAGAAGGUACAUGAGGAUCACCCAUGUGGGUAACGUUG [Brourd's EX4 #76] (Eterna round: R97, puzzle: Brourd's mod of Exclusion 4)”, the “apparent KD of MS2 coat protein” value by setting is: (input ligand: FMN 200 uM) 108 nM; (input ligand: none) 86.2 nM.

On to “AUGGUUCGGUCAGGAUAUCGUAGAUUGAAUAGUAUGAUUUACAUGAGGAUCACCCAUGUUACAUACGAGAAGGGACCGAAUCAU [JR_ExcNG2_Sub024] (Eterna round: R96, puzzle: Exclusion NG 2)”, for which the “apparent KD of MS2 coat protein” value under setting [1] worked out at 10.4 nM.

Take “GGGAAACAUGAGGAUCACCCAUGUGAGGAUAUGAAAAAGAAAAGAAAAGAAAGAAGAAUCAGAAGGCACAAAGG [salish99-ex1_r3_079] (puzzle: Exclusion 1)”: the “apparent KD of MS2 coat protein” value runs as follows: under setting [3], 75.5 nM; under setting [2], 36.1 nM; under setting [4], 54.9 nM.

As to “AGCUGUGGCCGAGGAUAUCCAGCCUUAAAUACCGACGUAUAGUCGGACAUGAGGAUCACCCAUGUGGAGAAGGUGGUCUCAGCA [Eli eng2 - 041] (Eterna round: R96, puzzle: Exclusion NG 2)”, the “apparent KD of MS2 coat protein” value reads like this: (input ligand: FMN 200 uM) 93.1 nM; under setting [1], 41.8 nM; (input ligand: none) 42.7 nM.

For “CCGGCUUAGGAGGAUAUAGGAGUCGAUAGACACCUAGAAGGCCUGACAUGAGGAUCACCCAUGUGUCCUACCGG [Fiskers Ex 6 - 98] (puzzle: Exclusion 6)”, the “apparent KD of MS2 coat protein” value came to 31.1 nM under setting [3], 14.2 nM under setting [2] and 16.5 nM under setting [4].

As to “AGUAACUAUCACGAAAGUGAUAGUUACACAAGUAGUGAAACAUGAGGAUCACCCAUGUCCUCAUUUGCUCGUCUUAU [Sensor 3 - 33] (puzzle: Sensor v3, turn-off variant 2)”, the “apparent KD of MS2 coat protein” value under setting [3] turned out to be 461 nM, the “apparent KD of MS2 coat protein” value under setting [2] came out at 168 nM and the “apparent KD of MS2 coat protein” value under setting [4] was 925 nM.

As to “UCGGCGCGAGGAUAUGCGGCUGGUGCUUCGGGCCCUCGCGUACAUGAGGAUCACCCAUGUAGAAGGCGCGCCGC [Apr-15 SS2-43] (puzzle: Exclusion 2)”, the “apparent KD of MS2 coat protein” value under setting [2] worked out at 20.5 nM.

With “AAUAACAGAGGAUAUACUGUUUUAUGUGUUUGUUAUUUUAAACAUGAGGAUCACCCAUGUAGAAGGCUGAAUAA [JMF 15] (puzzle: Exclusion 2)”, the “apparent KD of MS2 coat protein” value under setting [2] is 19.8 nM.

Turning to “AAAGACAUGAGGAUCACCCAUGUACUGGUGGAGCUCGUGAGGCAGGAUAUCGCGUGCGAAGCUCGCGAGAAGGGCCAGGAAUUU [Cexela] (Eterna round: R96, puzzle: Exclusion NG 3)”, the “apparent KD of MS2 coat protein” value (input ligand: FMN 200 uM) is 416 nM, the “apparent KD of MS2 coat protein” value under setting [1] worked out at 98.2 nM and the “apparent KD of MS2 coat protein” value (input ligand: none) turned out to be 109 nM.
